Test [1] has as its target p12026-BSA-conjugate (human). Nature of the test: ELISA, plate coated with p12026-BSA-conjugate 4 µg/ml; serum dilution 1:100. A general note: ELISA stands for enzyme-linked immunosorbent assay.
Test [2] concerns the target p12026-BSA-conjugate (human). In words: ELISA, plate coated with p12026-BSA-conjugate 4 µg/ml; serum dilution 1:200.
The target in test [3] is p12026-BSA-conjugate (human). Nature of the test: ELISA, plate coated with p12026-BSA-conjugate 4 µg/ml; serum dilution 1:400.
Chain of p12026-BSA-conjugate (human) (P02769 25-607 limits assumed): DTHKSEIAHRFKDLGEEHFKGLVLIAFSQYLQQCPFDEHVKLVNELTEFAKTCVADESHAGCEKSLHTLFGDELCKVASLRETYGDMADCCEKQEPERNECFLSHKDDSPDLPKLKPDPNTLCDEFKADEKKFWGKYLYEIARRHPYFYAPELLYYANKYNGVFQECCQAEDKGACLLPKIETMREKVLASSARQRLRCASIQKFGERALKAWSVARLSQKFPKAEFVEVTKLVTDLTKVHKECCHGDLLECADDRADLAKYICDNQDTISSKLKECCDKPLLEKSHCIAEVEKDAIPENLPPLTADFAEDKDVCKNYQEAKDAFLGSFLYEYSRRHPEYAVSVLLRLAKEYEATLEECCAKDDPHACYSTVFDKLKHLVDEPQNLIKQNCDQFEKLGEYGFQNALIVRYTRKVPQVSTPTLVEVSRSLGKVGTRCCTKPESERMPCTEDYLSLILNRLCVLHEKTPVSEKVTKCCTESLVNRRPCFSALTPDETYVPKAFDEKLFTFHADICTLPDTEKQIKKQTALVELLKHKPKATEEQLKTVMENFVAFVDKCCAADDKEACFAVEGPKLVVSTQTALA
For test [4], the target named is p12026-BSA-conjugate (human). Nature of the test: ELISA, plate coated with p12026-BSA-conjugate 4 µg/ml; serum dilution 1:800.
For test [5], the target named is p12026-BSA-conjugate (human). Nature of the test: ELISA, plate coated with p12026-BSA-conjugate 4 µg/ml; serum dilution 1:1600.
Test [6] concerns the target p12026-BSA-conjugate (human). In words: ELISA, plate coated with p12026-BSA-conjugate 4 µg/ml; serum dilution 1:3200.
For test [7], the target named is p12026-BSA-conjugate (human). In words: ELISA, plate coated with p12026-BSA-conjugate 4 µg/ml; serum dilution 1:6400.
Test [8] has as its target p12026-BSA-conjugate (human). In words: ELISA, plate coated with p12026-BSA-conjugate 4 µg/ml; serum dilution 1:12800.
The target in the next test is NTSR1 (UniProt P30989). In words: cell-based or functional assay.
Chain of NTSR1 (P30989 whole entry): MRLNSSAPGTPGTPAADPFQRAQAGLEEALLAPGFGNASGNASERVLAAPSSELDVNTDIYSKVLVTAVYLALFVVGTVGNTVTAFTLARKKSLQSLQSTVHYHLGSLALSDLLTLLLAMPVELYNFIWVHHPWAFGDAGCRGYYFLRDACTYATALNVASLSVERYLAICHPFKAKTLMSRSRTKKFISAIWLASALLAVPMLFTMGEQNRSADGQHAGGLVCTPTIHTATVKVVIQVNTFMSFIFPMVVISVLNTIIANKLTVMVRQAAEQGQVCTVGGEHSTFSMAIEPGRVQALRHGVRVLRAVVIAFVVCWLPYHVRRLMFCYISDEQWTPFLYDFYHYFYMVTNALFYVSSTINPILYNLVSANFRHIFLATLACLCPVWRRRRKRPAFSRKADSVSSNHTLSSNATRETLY

normal serum (antibody): the OD405nm in [1] was 0.032 OD405nm; in test [2] it was 0.016 OD405nm; in [3], 0.016 OD405nm; in test [4] it was 0.012 OD405nm; in test [5] it was 0.008 OD405nm; in test [6], 0.01 OD405nm. Also, the OD405nm in test [7] worked out at 0.009 OD405nm; in test [8], 0.004 OD405nm.
Consider “NTS released or expressed by cancer cells (from UniProt P30990 24-163) (ligand)”, for which the reduction of cell growth of CHO NTSR1 overexpressing cells with NTSR1 was found to be 60%.

The record behind these values is patent US20170218057A1.
